Where no end group is shown, it is not given here. [ ]: non-standard residue; d: D form. NMeE = CN[C@@H](CCC(=O)O)C(=O)O
Target: clotted plasma proteins
Experiment: binding to plasma clots; method not described, data not shown

| Kd | Binder |
| --- | --- |
| 2.5 µM | CR[NMeE]KA [CR(NMe)EKA] |
| 6 µM | CREKA [CREKA peptide (cys-arg-glu-lys-ala)] |
